Reference: US20260001937A1, “NOVEL RECOMBINANT FIBRINOGEN VARIANTS FOR FIBRIN SEALANTS FOR SURGICAL WOUND CARE” (Julius-Maximilians-Universität Würzburg, priority 2022, published 2026)

Molecular target: T1, fibrin gel (Sigma Aldrich fibrinogen, 20 mg/mL, gelled with thrombin, factor XIIIa and CaCl2), P02671
T1 chain 1: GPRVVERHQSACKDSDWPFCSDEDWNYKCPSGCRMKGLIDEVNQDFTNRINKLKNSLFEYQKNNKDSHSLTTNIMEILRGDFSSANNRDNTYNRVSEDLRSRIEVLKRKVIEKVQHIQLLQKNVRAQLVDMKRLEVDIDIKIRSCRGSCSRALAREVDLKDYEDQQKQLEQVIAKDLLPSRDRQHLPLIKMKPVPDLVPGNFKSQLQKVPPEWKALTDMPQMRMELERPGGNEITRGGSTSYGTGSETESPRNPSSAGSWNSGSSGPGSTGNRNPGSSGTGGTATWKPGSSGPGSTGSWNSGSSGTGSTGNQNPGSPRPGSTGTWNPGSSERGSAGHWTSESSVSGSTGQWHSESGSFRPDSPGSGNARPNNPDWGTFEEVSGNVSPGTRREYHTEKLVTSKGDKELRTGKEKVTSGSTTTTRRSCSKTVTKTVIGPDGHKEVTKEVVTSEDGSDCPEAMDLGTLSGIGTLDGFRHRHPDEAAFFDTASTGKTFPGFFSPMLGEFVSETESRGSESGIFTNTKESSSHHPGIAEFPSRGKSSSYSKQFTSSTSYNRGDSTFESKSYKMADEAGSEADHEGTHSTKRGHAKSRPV
T1 chain 2: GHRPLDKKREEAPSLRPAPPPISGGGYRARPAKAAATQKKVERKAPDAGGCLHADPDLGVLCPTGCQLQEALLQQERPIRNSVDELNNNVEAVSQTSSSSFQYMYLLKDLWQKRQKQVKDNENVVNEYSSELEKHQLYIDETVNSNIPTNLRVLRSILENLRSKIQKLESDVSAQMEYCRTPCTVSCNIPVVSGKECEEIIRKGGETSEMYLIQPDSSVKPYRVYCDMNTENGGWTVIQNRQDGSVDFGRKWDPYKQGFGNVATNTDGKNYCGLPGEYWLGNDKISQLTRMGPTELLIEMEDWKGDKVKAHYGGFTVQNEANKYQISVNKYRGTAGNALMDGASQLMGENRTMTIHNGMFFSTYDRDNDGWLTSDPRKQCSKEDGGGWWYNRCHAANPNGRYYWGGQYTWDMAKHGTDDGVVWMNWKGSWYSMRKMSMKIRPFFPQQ
T1 chain 3: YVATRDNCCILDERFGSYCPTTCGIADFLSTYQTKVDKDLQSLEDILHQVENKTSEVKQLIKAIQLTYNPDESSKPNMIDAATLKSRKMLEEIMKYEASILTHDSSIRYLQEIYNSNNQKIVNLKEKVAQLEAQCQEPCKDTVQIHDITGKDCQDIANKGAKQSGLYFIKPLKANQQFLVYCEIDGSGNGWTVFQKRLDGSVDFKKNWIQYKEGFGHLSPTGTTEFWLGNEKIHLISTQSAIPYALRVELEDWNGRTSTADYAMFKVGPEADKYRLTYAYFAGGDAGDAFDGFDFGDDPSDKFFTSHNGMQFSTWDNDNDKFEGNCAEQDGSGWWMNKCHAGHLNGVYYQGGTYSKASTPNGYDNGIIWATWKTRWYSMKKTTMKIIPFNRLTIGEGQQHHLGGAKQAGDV

B1: human plasmin (Merck) (protein)
chain: KVYLSECKTGNGKNYRGTMSKTKNGITCQKWSSTSPHRPRFSPATHPSEGLEENYCRNPDNDPQGPWCYTTDPEKRYDYCDILECEEECMHCSGENYDGKISKTMSGLECQAWDSQSPHAHGYIPSKFPNKNLKKNYCRNPDRELRPWCFTTDPNKRWELCDIPRCTTPPPSSGPTYQCLKGTGENYRGNVAVTVSGHTCQHWSAQTPHTHNRTPENFPCKNLDENYCRNPDGKRAPWCHTTNSQVRWEYCKIPSCDSSPVSTEQLAPTAPPELTPVVQDCYHGDGQSYRGTSSTTTTGKKCQSWSSMTPHRHQKTPENYPNAGLTMNYCRNPDADKGPWCFTTDPSVRWEYCNLKKCSGTEASVVAPPPVVLLPDVETPSEEDCMFGNGKGYRGKRATTVTGTPCQDWAAQEPHRHSIFTPETNPRAGLEKNYCRNPDGDVGGPWCYTTNPRKLYDYCDVPQCAAPSFDCGKPQVEPKKCPGRVVGGCVAHPHSWPWQVSLRTRFGMHFCGGTLISPEWVLTAAHCLEKSPRPSSYKVILGAHQEVNLEPHVQEIEVSRLFLEPTRKDIALLKLSSPAVITDKVIPACLPSPNYVVADRTECFITGWGETQGTFGAGLLKEAQLPVIENKVCNRYEFLNGRVQSTELCAGHLAGGTDSCQGDSGGPLVCFEKDKYILQGVTSWGLGCARPNKPGVYVRVSRFVTWIEGVMRNN
  time course of plasmin cleavage sites in the alpha-chain of fibrin gels, high-resolution ESI-MS (0.005 mU/ml plasmin, up to 2 h): cleavage begins in the αC region of fibrinogen with the most prominent cleavage at positions 602 (K|MADE) and 620 (K|RGHA). Next, cleavage sites further down the αC region are cleaved ... (e. g. positions 527 (K|TFPG), 510 (R|HRHP), 225 (K|MKPV) and 238 (K|SQLQ)). At the same time, cleavage in the α
  time course of plasmin cleavage sites in the beta-chain of fibrin gels, high-resolution ESI-MS: cleavage of the β-chain starts at the N-terminus highlighted by positions 52 (K|REEA) and 72 (R|ARPA) ... Subsequently, the α-helical part between fragment D and E is cleaved by plasmin (e. g. 152 (K|DLWQ) and 160 (K|QVKD))
  time course of plasmin cleavage sites in the gamma-chain of fibrin gels, high-resolution ESI-MS: only one additional cleavage site was found in this time-resolved assay for γ-chain ... With only 5 cleavage sites detected during the early stages of plasmin degradation
